This assay has as its target T1, IL-4Rα ectodomain (site-specifically biotinylated IL-4Rα ectodomain protein) (human, UniProt P24394 26-232, site-specifically biotinylated (site not stated)).
T1 construct: extracellular domain; Immobilised on a streptavidin-coated SPR chip; also called IL-4Rα ECD; IL-4 receptor α
T1 sequence (looked up): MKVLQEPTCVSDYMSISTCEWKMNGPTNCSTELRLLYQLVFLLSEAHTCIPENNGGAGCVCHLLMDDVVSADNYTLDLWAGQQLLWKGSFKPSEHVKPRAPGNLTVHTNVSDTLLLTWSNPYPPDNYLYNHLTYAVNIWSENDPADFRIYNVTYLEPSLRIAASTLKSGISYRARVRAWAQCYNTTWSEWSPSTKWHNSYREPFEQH
As to the kind of experiment: in vitro interaction analysis (SPR) on IL-4Rα.

B1: IL-4 mutein F82D Q20N T28N K61N R121C-Glc (Hek293-derived, hyper-glycosylated) (ligand)
chain: HKCDITLQEIIKTLNSLTENKTLCTELNVTDIFAASKNTTEKETFCRAATVLRQFYSHHENDTRCLGATAQQFHRHKQLIRDLKRLDRNLWGLAGLNSCPVKEANQSTLENFLERLKTIMCEKYSKCSS
modifications: complex N-glycans at positions 38, 20, 28 and 61; disulphide conjugated glucose at Cys121
notes: also called Q20N/T28N/K61N/F82D/R121C-Glc; 3rd generation IL-4 antagonist; not shown: C-terminal thrombin cleavage site and hexahistidine tag of the modified pHLsec vector
With B1, the equilibrium dissociation constant (Kd) (usually a measure of binding affinity in units of concentration) is approximately 218 pM.

Values taken from EP3553078A1 (Julius-Maximilians-Universität Würzburg, dated 2019).
